Test results as given in paper PMC6513101, “Experimentally guided computational antibody affinity maturation with de novo docking, modelling and rational design” (PLoS Computational Biology, 2019).

B1: AB1 alanine variant 7 (H:S28A, H:N113A, L:K36A) (antibody, V domains shown)
VH: QVQLQQSGAELAKPGSSVKISCKAYGASFTTNSIHWIKQTTGQALEWTGYIAPGSGGARYNEKFKGKATLTVDKSSGTAYMQLSSLTPVDTAVYYCALNIGTAPFTYWGQGTLVTVSS
VL: DIVMTQGALPNPVPSGESVSITCRSSKSLLYSDGATYLNWYLQRPGQSPQLLIYWMSTRASGVSDRFSGSGSGTDFTLKISGVEAEDVGVYYCQQGLEFPRTFGSGTKLEIK
notes: IMGT numbering; IgG1, as m1; source: HEK293FT, transiently transfected, purified (Protein A)
B2: AB1 anti-muCCL20 monoclonal antibody (antibody, V domains shown)
VH: QVQLQQSGAELAKPGSSVKISCKAYGSSFTTNSIHWIKQTTGQALEWTGYIAPGSGGARYNEKFKGKATLTVDKSSGTAYMQLSSLTPVDTAVYYCALNIGTNPFTYWGQGTLVTVSS
VL: DIVMTQGALPNPVPSGESVSITCRSSKSLLYSDGKTYLNWYLQRPGQSPQLLIYWMSTRASGVSDRFSGSGSGTDFTLKISGVEAEDVGVYYCQQGLEFPRTFGSGTKLEIK
notes: VH of AB1; VL of AB1; IgG1 (in-house mammalian expression vector); hybridoma derived; also called WT AB1; parental AB1; source: HEK293FT, transiently transfected, purified from supernatant (Protein A)

How the values were obtained:
[1] = molecular target: T1, biotinylated murine CCL20, O89093; assay: capture ELISA; settings: chain shown with the change; highest mAb concentration, log[nM] about 1.8; plate-coated anti-Fc antibody to capture the antibody variants; parent: est. 1.8; read off a plot
T1 chain: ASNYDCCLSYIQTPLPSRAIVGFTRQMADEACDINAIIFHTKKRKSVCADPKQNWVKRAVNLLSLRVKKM

[2] = molecular target: T2, biotinylated murine CCL20 (Mus musculus, UniProt O89093, biotin); assay: ELISA; capture ELISA: plate-coated anti-mouse Fc antibody (1 ug/mL) captures the antibody variant (5 ug/mL); biotinylated muCCL20 titrated from 0 to 600 nM, 1 h; settings: both partners purified
T2 construct: CCL20, mouse; recombinant; m2 with biotin; also called biotinylated muCCL20; muCCL20 antigen; source: in-house, standard mammalian cell expression; biotinylated

murine CCL20 = molecular target: T3, murine CCL20 (Mus musculus, UniProt O89093); assay: ELISA; mouse or human CCL20 coated at 2 ug/mL on Maxisorp plates overnight at 4°C; antibody dilutions starting at 60 nM; detected with anti-Fc-HRP; settings: both partners purified
T3 construct: CCL20, mouse; recombinant; also called muCCL20; mouse CCL20; source: in-house, standard mammalian cell expression; purified

Binder	response [1] [A450]	binding result [2]	binding result (murine CCL20)
B1	0.86	binds	
B2		binds	binds
